Target: full length human CCR8 (hCCR8) (human) (UniProt P51685)

IC50, inhibition of chemotaxis of hCCR8-transfected P815 cells to 1 nM CCL1 (intact IgG1, Cell Titer Glo): 6.53 ng/mL
B1: benchmark anti-CCR8 antibody 4A19 (Bristol Myers Squibb) (antibody, from another filing, IgG1, V domains shown)
VH: QVQLVQSGAEVKKPGASVKVSCKASGYTFTDSEMHWVRQATGQGLEWMGAIQPETGGTAYNQKFKARVTMTRDTSISTAYMELSSLRSEDTAVYYCARRRRNFDYWGQGTLVTVSS
VL: DIVMTQTPLSLSVTPGQPASISCRSSQSLFHSSGNTYLHWYLQKPGQPPQLLIYKVSNRFSGVPDRFSGSGSGTDFTLKISRVEAEDVGVYYCSQSTHVPFTFGQGTKLEIKR

Reference: patent publication US20230279130A1
